Patent US20090048117

Tests used:
[1] = system: T1, GST-NIP45 fusion protein (bacterially expressed, full length NIP45)
T1 sequence: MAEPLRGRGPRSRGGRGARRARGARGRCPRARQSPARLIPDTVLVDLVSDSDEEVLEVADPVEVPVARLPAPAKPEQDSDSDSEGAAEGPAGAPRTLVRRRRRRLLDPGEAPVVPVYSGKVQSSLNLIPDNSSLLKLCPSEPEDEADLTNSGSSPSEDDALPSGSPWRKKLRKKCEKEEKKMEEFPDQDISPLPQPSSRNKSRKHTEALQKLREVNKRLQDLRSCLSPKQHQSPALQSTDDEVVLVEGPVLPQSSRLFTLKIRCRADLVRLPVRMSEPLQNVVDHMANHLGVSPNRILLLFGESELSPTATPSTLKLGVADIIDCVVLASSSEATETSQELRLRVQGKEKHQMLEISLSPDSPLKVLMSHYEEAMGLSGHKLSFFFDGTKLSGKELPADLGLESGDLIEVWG

Flag epitope tagged CARM1 immunoprecipitated from 293 cell extracts
in vitro methylation assay with affinity purified PRMTs and GST-NIP45 [1]: In this assay, only PRMT1 was capable of methylating NIP45

Flag epitope tagged PRMT3 immunoprecipitated from 293 cell extracts
in vitro methylation assay with affinity purified PRMTs and GST-NIP45 [1]: In this assay, only PRMT1 was capable of methylating NIP45

Flag epitope tagged PRMT5 immunoprecipitated from 293 cell extracts
in vitro methylation assay with affinity purified PRMTs and GST-NIP45 [1]: In this assay, only PRMT1 was capable of methylating NIP45

GST-CARM1
in vitro methylation assay with recombinant proteins (Histone H3): CARM1 did methylate histone H3 (lane 7)
